A short description of this data set: label from the status in PepcDB records.

With “MVDFIRRIQISCVVSLTDSRHQRRTKSHHHPLNPPNPVAESRKRSKGKQKEKVNNMVLFDQATYDKLMSEAPKFKLITPSILSDRLRINGSLARKAIRDLMVKGTIRMVSTHSSQQINTRATCLT”, the protein production result is recorded as “failed”.
The entry for “MVDMDWKRKMVSSDLPNSPKLSSKLHVTIPSPFKIVPVSSPISCSAPALCSAYELYLRLPELRKLWSSRDFPQWTSEPILKPALQALEISFRLVFAVCSDTRPYINHREWNRRLDSLITKQIQLVAAICEDEEEEGISAEAPVGGGRSSLSLLPQLATWRRSEALGKKILYTIDNEMSRCKYTLGLGEQNIAGKPNLRYDAICRPNEIYSLKDNPYADHIDNHENQTLYIIHQILESWIYASGNLLNRIVSSIEEEKFGKASNDVYLLEKIWKILAEIEDLHMLMDPEDFLKLKKQLQIKSTGKNDAFCFRSKGLVEMMKMSKDLRQKVPAVLAVEVDPTGGPRLQEAAMKLYARKTECDKIHLLQGMQAVEAAAKSFFFGYRQLVAAMMGSAEMNATASQESCDSLSQIFMEPTYFPSLDAAKTFLGEFWSHLG” is “failed”; for “MVDSYDDSLDGEKSKTQVKRELHALVDLGERLTTLKADVLAKLPLTDALRKALAEAPKHTANIARKRHILFIGKLMRDQDQEAILVLLDQLDASTRQYNERFHNLERWRDRLIAGDDADLEKFVIEYPDADRQQLRSLIRQAQHEVARNKPPATSRKIFKYIRELDELQ” it is “not failed”; for “MVDSYDDSLDGEKSKTQVKRELHALVDLGERLTTLKADVLAKLPLTDALRKALAEAPKHTANIARKRHILFIGKLMRDQDQEAILVLLDQLDASTRQYNERFHNLERWRDRLIAGDDADLEKFVIEYPDADRQQLRSLIRQAQHEVARNKPPATSRKIFKYIRELDELQRGLR” it is “not failed”.
Next, “MVDWSTLPKDLLDLISKSLESSFDLIQFRSVCSSWRSAAEPKSPLPTHHLPILPDNGGSLFPDSAVGFRLSQRSILLIKPHEPCIESDSFGWLIKVEEDLNVPRKVTLLDPLCDTRNSIPENFPRVLDMSKFKVRELGREFKLHYFNTVGDIVESLYLEKAVVKYLDCDGDYKFVLLTIHVSGKLAVFRSWDRAWTVINDMPSPYDDVMLFDGRFFAVDNNGRTVVVDYSSLKLTLVASPVFGGDKKFLIESCGEMLLVDMYLSLEAVEGDPGFVEEIFEHPAFYMNERTVKFKVYRFVEREESWVDVYDLEDKMLFLGDDSTFSASASDILPLCDGSSVFFNGNVFNGEDLGAMQDRDLGVFDFRSGKIELVQKLPEYAKLFWPPPPWITSHARAEDHIGETSSQS”: “failed”.
For “MVEAIIFDMDGVLFDTEKYYYDRRASFLGQKGISIDHLPPSFFIGGNTKQVWENILRDEYDKWDVSTLQEEYNTYKQNNPLPYKELIFPDVLKVLNEVKSQGLNIGLASSSVKADIFRALEENRLQAFFDIVLSGEEFKESKPNPEIYLTALKQLNVQASRALIIEDSEKGIAAGVAADVEVWAIRDNLFGMDQSAAKGLLDSLTDVLDLI”, the protein production result is “not failed”.
The entry for “MVEAPPPELRILSAGDSSYSGSGWSRVPHVWLRDEIRLSGEPRVRQGKREGDRRFRGRGRDRGRWHLGCPRKALFSNLLGTVYRCGNLNFSRDGNSVISPVGNRVTVFDLKNNRSDTLPLATKYNIKCVGLSPDGRLAIIVDEGGAALLVSLVCRSVLHHFHFKGSVHSVSFSPDGRKFVITKGNIAQMYHAPGKKREFNAFVLDKTYFGPYDETTCIDWTDDSKCFVVGSKDMSTWVFGAERWDNLIYYALSGHKDAIVACFFESNSLDLYSLSQDGALCVWQCDTPPEGLRLKAPRGWKADILQREKEEEEEEDEEGEGNRETTIRGKAVPAEQERVGKVKYSRLAKYFLNKEGDFNNLTAAAYHKKTHLLVTGFASGIFHLHELPEFNLIHSLSISDQRVASVAINSSGDWIAFGCSGLGQLLVWEWQSESYVLKQQGHFNSMVALAYSPDGQYIVTGGDDGKVKVWNTLSGFCFVTLTEHSSGVTGVTFTATGHVIVTSSLDGTVRAYDLHRYRNFRTFTSPRPTQFSCVAVDSSGEIVSAGAQDSFEIFVWSMQTGRLLDVLSGHEGPISGLCFNPMKSILASASWDKTVRLWDMFDSWRTKETLSLTSDVLAVTYRPDGAELAVATLNSQITFWDPENAVQVGSIEGRHDLKTGRKELDKITAKHSAKGKAFTTVCYSADGQNILAGGMSKFVCLYHVREQILVKRFELSCNFSLDAMEEFLNRRKMTEFGNLALIDQDAGEENGVAIPLPGVRKGDMSSRHFKPEIRVTSLRFSPTGRCWAATSTEGLLIFSLDAQMLFDPFELDTSVTPGRIREALRQREFTRAILMAFRLNEKKLAQEALEAVPQNEIEVVSASLPELYVVKVLEFLAASFEESRHLEFYLIWTQKLLMSHGQRLKSRAGQLLPVVQFLQKGLQRHLDDISKLCDWNRYNIQYALAVSKQRGMKRTLEPVDTEEDTDASDEDSLHLLRAAEEEEEGMLV” is “failed”; for “MVEGVHCVPDSVELMPKQHDIPRARLRIVVHEGRNHEVRELVKNAGLEVHSLKRVRIGGFRLPSDLGLGKHVELKQSELKALGWKN” it is “not failed”.
The entry for “MVESKNTELSQGTWLNKPKSVFQEAGKVTLETDEKTDFWRETFYGFTRDSGHFLGVETGSAFTAQVRVQGSYESLYDQAGIMVRIDDGHWLKAGIEISDGHAMLSSVLTNGKSDWSTAVYGGNARDFWLRVTVEKGVLRIQVSSDKKTWPLVRLAPFPTSDHYLVGPMACTPERGGLKVTFSEWSLTAPLGKALHDLS” is “failed”.
Consider “MVETLPALEIGEDERLDLENLATGAFFPVKGFMTREEALSVAHEMRLPTGEVWTIPILLQFREKPRVGPGNTVALLHGGERVALLHVAEAYELDLEALARAVFGTDSETHPGVARLYGKGPYALAGRVEVLKPRPRTPLEKTPEEVRAFFRQRGWRKVVAFQTRNAPHRAHEYLIRLGLELADGVLVHPILGAKKPDDFPTEVIVEAYQALIRDFLPQERVAFFGLATPMRYAGPKEAVFHALVRKNFGATHFLVGRDHAGVGDFYDPYAAHRIFDRLPPLGIEIVKVGAVFHCPLCGGIASERTCPEGHREKRTAISMTKVRALLREGKAPPSELVRPELLPILRRGV”, for which the protein production entry was “not failed”.
For the sequence “MVFCGDDVATGVRDAITYCYRCKGRKVTLSDHEADDDNKPIGDFDYDHEVVVFEIRSRAMEKLRKKRRTGMEGLTYKFVKEYDIENEFCSVRSSFSECCMSDISIEGYMTAKTEFSRSSSLKGLELENQWKMHYVNEIKKGSVIQEFCHCQGWPFGLGRKAALLPPLPKSPAESWSWRKPTRVTPVPFV”, the protein production result is given as “failed”.
The entry for “MVFIMENTNKIASLELGRLLAMFAIIALHSQVFMTYLLMDDFPVFGNIFNQLTRFAVPFFFILSGYFIQPKLTHTPLKTIQSYCAPLFKIWIVWSVLSLALPFHWRKVAENGYLAERTGYWNWLTQNPLNALFEGGMVHLWFIPALIIAVSIIGLLIHFKKTTWLIPIAVILYVYGLAGGSYQTLTEVWTPFFTRNGPFFSTLMVVIGFELRRREITLSSTNALILLLVGFAIHFSEAYWLTQFDVPFNLHDFLIGTPLMGIGVFFLLLSKPQLGHHPITFTLSKHVLGIYVCHLLFVVVFLNITGMMGITLAMRDFVIVFGTATASTLFVLIMDKTPFRQMLFR” is “failed”; for “MVFSGPASPGLTLAPLRRGGIDPCYRVDAAGAIWRTSLMPSGPVTARITRAATDAADCQAWGEGADEFIDRLPALLGVDDDASDFAPAEPTIAKARRQVPHLRLGRTGRMLEALIPAIIEQRVYGLDAWRAWRALVTKFGTPAPGPAPDGMRVVPSAEVWRRIPSWEFHRANVDPGRARTIVMCAQRADSLERLTHERAAVTLRSLPGVGEWTAAETMQRVFGDADALSAGDYHLATLVGQALTGEPVDDAGMVELLEPMRPHRHRAVRLLEASGMFVYRRRGARQAIPKLRTLLEHHHHHH” it is “failed”; for “MVFTLADSVSQVALGPSWLDPMELLSGSGPFGSFILPAMLAIVFIESGLLFPLLPGDSLLFTGGLLANQADPFAPLWLVLILCPIAAILGDQVGYWIGHKFHPRLVNRPDGRIFKQEYLKQTEDFFEKHGPVTIILCRFVPIVRTYAPLVAGMAGMRYRTFIIYNMIGGILWGSGVVALGAALGQFDFVRNNIDLIFLLIVFISVVPGLVGMARKLADGHKQANTEPQENPAVQTAPVKTQEAQEAPQN” it is “failed”.
The entry for “MVGAIARWASLKIVMNPRQLTKTMNIQFLGNITTAILLAVVLQITLWPSAAQACTRILWNNNKLAVVVGRTMDWPESTEPELMVFPQGIKRNGGMLGDMLVVKDNPAQWTSKYGSVVTTVYGMGTVDGLNEKGLGMHMLYLTATDFGPRNPKKAGVQAGLWGQYLLDNAATVKEALALMNEIQPVMVALDDMKATVHLAIEDASGDSAILEYVEGKLVVHHGPEYRVMTNDPTYDQQLKFLETWDFTNATRQTPLPGNVDPKDRFVRASYYQMMLPEPKTEQEAIAGILAIARNTSVPFGAPNNIPGSLYNTEYRTAIDLTNRRYFFELTTSPNVIWVNLDQLNLAPGAPVLSLDPDNLDLSGNVTDKFTKVLKSPF” is “failed”.
For the sequence “MVGIRKRKDFFEDFGSELFDNLEEMIEALLEEMGDSVPFVYGFSIIHRPGEDPELREFGNVPEYPQQEENFFPSETKEPLIDIFENENMVHVLAEFPEIEKEDILLHATGQHLEIKVLGLSEYTEDVDLPVRVDPKSAKASYKNGVLEVTFRRCSEESPVEIEINLEHHHHHH”, the protein production entry is reported as “not failed”.
Consider “MVGIRKRKDFFEEFGSELFDNLEEMIEALLEDMGESVPFVYGFSIIRRPGEDPELREFGNISENSEDEENPFPSEIRDPLIDIFESEELIHVLAEIPEIEKEDLLLHATAQNLEIRILGASEYSQDIELPARVDPKSAKASYKNGVLEVTFKRCTEEMPVEIEIN”, for which the protein production result is given as “failed”.
As to “MVHASQLNSYSLAILKLCLFILDFVLLCFFLMLTDEEIDSDSELDEYMEQQIAALPQNEINPEEDDESDSDEMGLDEDDDSSDEEDVEAEAPLKVAPPSKKMPNGAFEIAKGGKKNKSSGGKKRCPFPCGPSCKK”, the protein production entry is “failed”.
The entry for “MVIFIMKKRYICILPYSLSYGGVFIDCKEVIANYWNFRSSTYKNGINGFDEEERAVWKQIFENSLASGKRLKVLDVGTGTGFLALLFAEMGHEVSGIDLSEGMLEKARHNADNMGLEISLFHGDAENLPFEDCSFDLVVNKYLLWTLQEPASAVREWKRVLKPGGMIFAIDGNWFDPRPDRYIKRMLYGLAERFAKKNQYNLIFKKSYGPIRNSLPLYEKISPKNISFLFSETGLMNTEISPLLEVQKFQRNRHSFSRRIFENNSIFLISGQKNLEHHHHHH” is “failed”; for “MVIIDWSLSVDRTIPKPLRIILRGVGQVFFCCNAVTGLIFLMALYIGGVTAGLAATAGVFSSTIAAHLLGFPEKDIDAGLYGFNGTLVGPCLFLFLENSPQLWLYVVLASILSTIVLAALMRILQPCDIPASTAPFILTCWMFMAAVYAFDSFSRGPLLPTAGIPVEAANISMIPVEIGYMAAAKGISEVMFADSVVVGILFLAGIAIHSLRGAAMALAGAIVGIVIPVLLGMDKSLIEMGLYAFNPVLAMMAVGWAFLKPSGRSMGLAFLAGIFTVICQAGLTGFLTPLGLPVLTFPFVLVMWVFLLAASRSKYWEYLNQGK” it is “failed”.

These data come from a protein production outcome set (Wang et al. 2014).
